According to patent publication US20180298070A1, “PEPTIDE COMPOUND” (Takeda Pharmaceutical Company Limited, published 2018):
Non-standard residues stand in square brackets, D forms with d. Groups on a side chain read outwards from the residue. Primed or numbered codes have the meaning given here. No end group written: not given here. *: point of attachment. C20 diacid = O=C(O)CCCCCCCCCCCCCCCCCCC(=O)*; Iva = CC[C@](C)(N)C(=O)O; Aib = CC(C)(N)C(=O)O

T1: human GIPR (human), P48546
T1 chain: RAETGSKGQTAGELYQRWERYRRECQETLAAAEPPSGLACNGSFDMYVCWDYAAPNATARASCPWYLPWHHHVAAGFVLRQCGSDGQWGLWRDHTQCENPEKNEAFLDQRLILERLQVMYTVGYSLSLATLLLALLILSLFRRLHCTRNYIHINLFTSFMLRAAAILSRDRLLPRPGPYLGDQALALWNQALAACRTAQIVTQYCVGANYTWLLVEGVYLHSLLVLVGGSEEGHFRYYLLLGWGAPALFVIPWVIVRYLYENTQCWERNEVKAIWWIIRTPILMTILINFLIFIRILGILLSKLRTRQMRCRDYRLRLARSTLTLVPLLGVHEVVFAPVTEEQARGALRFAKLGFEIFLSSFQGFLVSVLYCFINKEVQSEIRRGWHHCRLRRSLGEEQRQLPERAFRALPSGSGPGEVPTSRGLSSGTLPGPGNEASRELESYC

T2: human GLP-1R (human), P43220
T2 chain: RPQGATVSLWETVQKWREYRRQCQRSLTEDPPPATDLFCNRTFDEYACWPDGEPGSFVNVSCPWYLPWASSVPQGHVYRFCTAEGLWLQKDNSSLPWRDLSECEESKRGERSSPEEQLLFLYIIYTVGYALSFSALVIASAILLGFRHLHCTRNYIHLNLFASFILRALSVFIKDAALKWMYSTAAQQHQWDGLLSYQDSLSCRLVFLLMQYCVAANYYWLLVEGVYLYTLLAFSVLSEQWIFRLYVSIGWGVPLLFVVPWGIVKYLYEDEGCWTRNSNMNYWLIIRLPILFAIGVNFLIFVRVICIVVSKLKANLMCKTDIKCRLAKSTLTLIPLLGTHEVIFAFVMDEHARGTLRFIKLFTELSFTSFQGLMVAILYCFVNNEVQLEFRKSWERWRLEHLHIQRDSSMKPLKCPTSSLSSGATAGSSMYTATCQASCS

T3: human GIPR (human, UniProt P48546)
T3 sequence: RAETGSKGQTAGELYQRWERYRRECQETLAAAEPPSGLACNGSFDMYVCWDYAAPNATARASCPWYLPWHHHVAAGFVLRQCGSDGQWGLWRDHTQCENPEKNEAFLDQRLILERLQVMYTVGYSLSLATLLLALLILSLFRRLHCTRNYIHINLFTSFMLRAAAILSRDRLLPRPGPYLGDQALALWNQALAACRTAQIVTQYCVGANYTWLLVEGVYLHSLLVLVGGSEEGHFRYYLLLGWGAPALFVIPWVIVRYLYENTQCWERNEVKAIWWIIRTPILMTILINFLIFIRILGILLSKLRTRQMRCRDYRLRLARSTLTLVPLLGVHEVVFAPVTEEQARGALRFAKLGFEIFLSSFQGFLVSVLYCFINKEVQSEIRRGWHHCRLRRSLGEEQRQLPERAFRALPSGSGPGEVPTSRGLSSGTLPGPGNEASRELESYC

T4: human GIPR (human, UniProt P48546)
T4 sequence: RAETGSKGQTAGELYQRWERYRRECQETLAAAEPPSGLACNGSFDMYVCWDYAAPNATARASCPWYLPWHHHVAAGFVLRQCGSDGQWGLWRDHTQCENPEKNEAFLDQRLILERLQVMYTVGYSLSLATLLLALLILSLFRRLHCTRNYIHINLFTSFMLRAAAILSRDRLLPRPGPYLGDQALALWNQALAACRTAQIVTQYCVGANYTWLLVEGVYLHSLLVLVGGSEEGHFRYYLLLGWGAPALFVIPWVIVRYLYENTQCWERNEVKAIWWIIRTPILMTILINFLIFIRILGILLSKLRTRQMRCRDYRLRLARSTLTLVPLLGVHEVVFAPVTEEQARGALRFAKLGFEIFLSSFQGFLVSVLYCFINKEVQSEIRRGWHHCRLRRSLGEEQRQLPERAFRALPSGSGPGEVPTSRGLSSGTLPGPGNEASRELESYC


How the values were obtained:
[1] = molecular target: T1, human GIPR (human), P48546; assay: [125I]GIP competition, human GIPR VLP
[2] = molecular target: T2, human GLP-1R (human), P43220
[3] = molecular target: T1, human GIPR (human), P48546
human GIPR [4] = molecular target: T3, human GIPR; assay: [125I]GIP displacement, hGIPR VLP
Protocol: For the measurement of the binding activity to GIPR, [¹²⁵I]GIP (PerkinElmer, Inc.) in a final concentration of 100 pM and a test compound in a specified concentration were mixed to GIPR_VLP in an assay buffer (50 mM HEPES (pH 7.4, WAKO 342-01375), 5 mM EGTA (WAKO 346-01312), 5 mM MgCl₂ (WAKO 136-03995), 0.1% BSA (Merckmillipore 81-066-04) and 0.005% Tween 20 (BioRad 170-6531)) and reacted at room temperature for 2 hours. VLP to which [¹²⁵I ]GIP was bound was trapped in a GF/C glass fiber filter 96-well plate (PerkinElmer 6005274) using a cell harvester and washed with an assay buffer. The GF/C glass fiber filter 96-well plate in which VLP was trapped was dried at 42° C. overnight. Thereafter, MicroScint-O (PerkinElmer 6013611) was added to the GF/C glass fiber filter 96-well plate sealed using a backseal and the plate was sealed using a topseal. The radioactivity of each well was eventually measured using Topcount (PerkinElmer) and the binding activity of the test compound to GIPR was calculated when the [¹²⁵I]GIP binding activity in the presence of GIP in a final concentration of […] was 100% and the [¹²⁵I]GIP binding activity of the wells to which DMSO was added was 0%.

human GLP-1R = human GLP-1R (human, UniProt P43220); assay: cell-based or functional assay
human GIPR [5] = molecular target: T4, human GIPR; assay: cell-based or functional assay

Binder	IC50 [1]	Agonist activity (EC50, M) [2]	Agonist activity (EC50, M) [3]	IC50 (human GIPR [4])	Agonist activity (EC50, M) (human GLP-1R)	Agonist activity (EC50, M) (human GIPR [5])
Y[Aib]EGTFISDYSIALDRK([PEG(2)-C20 diacid])AQQNFVNW[Iva]LAQRPSSGAPPPS (ends and bridges not checked) [Compound 385]	15 nM	> 1e-06 M	8.3e-11 M			
Y[Aib]EGTFISDYSIAK([PEG(2)-C20 diacid])DRIAQQNFVNW[Iva]LAQRPSSGAPPPS (ends and bridges not checked) [Compound 383]	10 nM	> 1e-06 M	4.3e-11 M			
YAEGTVVSLYSIALDKQHQQEFVKWLLKGGPSSGAPPPSK [Compound 24, listing 1 of 2 here]				370 nM		
YAEGTVVSLYSIALDKIHQQEFVKWLLKGGPSSGAPPPSK [Compound 25, listing 1 of 2 here]				520 nM		
YAEGTVVSLYSIALYKIHQQEFVKWLLKGGPSSGAPPPSK [Compound 26, listing 1 of 2 here]				420 nM		
YAEGTVVSLYSIALYKIHQQEFVKWLLKGGPSSGAPPPSK [Compound 26, listing 2 of 2 here]					> 1e-06 M	1.2e-08 M
YAEGTVVSLYSIALDKIHQQEFVKWLLKGGPSSGAPPPSK [Compound 25, listing 2 of 2 here]					> 1e-06 M	1.4e-09 M
YAEGTVVSLYSIALDKQHQQEFVKWLLKGGPSSGAPPPSK [Compound 24, listing 2 of 2 here]					> 1e-06 M	5.1e-09 M
Y[Aib]EGTVVSLYSI[Aib]LDRQAQ[Aib]EFVRWLLRGGPSSGAPPPSR-NH2 (N-terminus assumed; SMILES CC[C@H](C)[C@H](NC(=O)[C@H](CO)NC(=O)[C@H](Cc1ccc(O)cc1)NC(=O)[C@H](CC(C)C)NC(=O)[C@H](CO)NC(=O)[C@@H](NC(=O)[C@@H](NC(=O)[C@@H](NC(=O)CNC(=O)[C@H](CCC(=O)O)NC(=O)C(C)(C)NC(=O)[C@@H](N)Cc1ccc(O)cc1)[C@@H](C)O)C(C)C)C(C)C)C(=O)NC(C)(C)C(=O)N[C@@H](CC(C)C)C(=O)N[C@@H](CC(=O)O)C(=O)N[C@@H](CCCNC(=N)N)C(=O)N[C@@H](CCC(N)=O)C(=O)N[C@@H](C)C(=O)N[C@@H](CCC(N)=O)C(=O)NC(C)(C)C(=O)N[C@@H](CCC(=O)O)C(=O)N[C@@H](Cc1ccccc1)C(=O)N[C@H](C(=O)N[C@@H](CCCNC(=N)N)C(=O)N[C@@H](Cc1c[nH]c2ccccc12)C(=O)N[C@@H](CC(C)C)C(=O)N[C@@H](CC(C)C)C(=O)N[C@@H](CCCNC(=N)N)C(=O)NCC(=O)NCC(=O)N1CCC[C@H]1C(=O)N[C@@H](CO)C(=O)N[C@@H](CO)C(=O)NCC(=O)N[C@@H](C)C(=O)N1CCC[C@H]1C(=O)N1CCC[C@H]1C(=O)N1CCC[C@H]1C(=O)N[C@@H](CO)C(=O)N[C@@H](CCCNC(=N)N)C(N)=O)C(C)C) [Compound 30]					> 1e-06 M	1e-11 M
Y[Aib]EGTFISDYSIAK([PEG(2)-C20 diacid])DRIAQQNFVNW[Iva]LAQR (ends and bridges not checked) [Compound 389]	19 nM	> 1e-06 M	8e-11 M			
Y[Aib]EGTFISDYSK([PEG(2)-C20 diacid])ALDRIAQQNFVNW[Iva]LAQRPSSGAPPPS (ends and bridges not checked) [Compound 381]	8.7 nM	> 1e-06 M	4.4e-11 M			
Y[Aib]EGTFISDYSK([PEG(2)-C20 diacid])ALDRIAQQNFVNW[Iva]LAQR (ends and bridges not checked) [Compound 387]	8.2 nM	> 1e-06 M	5.9e-11 M			
